# From US7479385B2, “Sugar kinases with expanded substrate specificity and their use” (Wisconsin Alumni Research Foundation, priority 2003, dated 2009)
# T1: L. lactis wild-type GalK (Lactococcus lactis subsp. lactis, UniProt Q9R7D7)
# T1 sequence (Q9R7D7 1-399): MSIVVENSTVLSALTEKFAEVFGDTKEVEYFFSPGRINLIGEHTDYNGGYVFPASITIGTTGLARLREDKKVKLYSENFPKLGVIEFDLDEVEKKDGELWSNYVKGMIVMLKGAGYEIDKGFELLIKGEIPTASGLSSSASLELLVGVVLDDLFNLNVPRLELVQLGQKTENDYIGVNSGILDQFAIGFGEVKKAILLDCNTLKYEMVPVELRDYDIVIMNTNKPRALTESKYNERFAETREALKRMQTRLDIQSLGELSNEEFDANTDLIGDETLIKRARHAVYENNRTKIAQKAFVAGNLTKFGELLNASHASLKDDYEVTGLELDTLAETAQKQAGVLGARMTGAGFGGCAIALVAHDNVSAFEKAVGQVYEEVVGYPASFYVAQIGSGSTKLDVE
# T2: wild-type E. coli GalK (Escherichia coli, UniProt P0A6T3)
# T2 construct: made in house
# T2 sequence (P0A6T3 1-382): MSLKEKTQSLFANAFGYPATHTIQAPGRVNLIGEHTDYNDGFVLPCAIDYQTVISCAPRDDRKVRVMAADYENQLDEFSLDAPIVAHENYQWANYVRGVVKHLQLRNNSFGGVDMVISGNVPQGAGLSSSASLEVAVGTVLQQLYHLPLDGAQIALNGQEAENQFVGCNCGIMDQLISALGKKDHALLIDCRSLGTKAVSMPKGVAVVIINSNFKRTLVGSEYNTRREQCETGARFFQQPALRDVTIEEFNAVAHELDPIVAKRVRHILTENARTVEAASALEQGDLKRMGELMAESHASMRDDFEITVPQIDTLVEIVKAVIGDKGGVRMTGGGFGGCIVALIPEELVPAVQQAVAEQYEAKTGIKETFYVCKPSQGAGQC
# B1: wild-type E. coli GalK (Escherichia coli K-12) (protein)
# chain: MSLKEKTQSLFANAFGYPATHTIQAPGRVNLIGEHTDYNDGFVLPCAIDYQTVISCAPRDDRKVRVMAADYENQLDEFSLDAPIVAHENYQWANYVRGVVKHLQLRNNSFGGVDMVISGNVPQGAGLSSSASLEVAVGTVLQQLYHLPLDGAQIALNGQEAENQFVGCNCGIMDQLISALGKKDHALLIDCRSLGTKAVSMPKGVAVVIINSNFKRTLVGSEYNTRREQCETGARFFQQPALRDVTIEEFNAVAHELDPIVAKRVRHILTENARTVEAASALEQGDLKRMGELMAESHASMRDDFEITVPQIDTLVEIVKAVIGDKGGVRMTGGGFGGCIVALIPEELVPAVQQAVAEQYEAKTGIKETFYVCKPSQGAGQC
# notes: made in house
# Columns and labels:
# L. lactis wild-type GalK = target: T1, L. lactis wild-type GalK; conditions: in vitro; cited from earlier work
# [1] = target: T3, E. coli double M173L-Y371H mutant GalK (Escherichia coli, UniProt P0A6T3, M173L/Y371H); experiment: Substrate screen / percent conversion of 45 sugars, M173L-Y371H; type: biochemical
# T3 construct: His-tag (concluded from Ni-NTA purification and vector pET15b); made in house
# T3 sequence (P0A6T3 whole entry M173L/Y371H): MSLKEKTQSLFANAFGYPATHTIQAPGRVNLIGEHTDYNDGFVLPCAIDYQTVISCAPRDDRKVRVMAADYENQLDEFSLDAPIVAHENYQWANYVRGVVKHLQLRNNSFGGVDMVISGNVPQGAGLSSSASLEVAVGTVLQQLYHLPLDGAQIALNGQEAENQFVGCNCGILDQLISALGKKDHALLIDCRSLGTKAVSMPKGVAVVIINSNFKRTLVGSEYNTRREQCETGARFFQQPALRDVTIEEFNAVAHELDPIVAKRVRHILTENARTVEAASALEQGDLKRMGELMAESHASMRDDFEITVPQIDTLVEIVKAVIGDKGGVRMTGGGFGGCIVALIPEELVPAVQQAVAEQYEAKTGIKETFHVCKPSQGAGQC
# Description: Characterization of GalK Mutants. […] The mutant enzymes were purified by using metal affinity chromatography on Ni-NTA Spin Columns (QIAGEN, Valencia, Calif.) and fractions containing homogenous protein were collected, concentrated and quantified using the Bradford protein assay. The DNS assay was used to assess the substrate specificity of the purified GalK mutants as previously described. […] For each sugar, the DNS assay was used to monitor the reaction progress and control assays in the absence of enzyme or sugar were performed in parallel. Standard curves for each sugar were prepared as described. To assess general percent conversion, each reaction contained 15.0 (M enzyme, 8 mM sugar, 14 mM ATP and 3.5 mM MgCl2. […] For monosaccharide kinetic data determination, the sugar concentration was varied over a range of 1-8 mM, under saturating ATP (14 mM). Reaction progress was assessed via the DNS assay, wherein a change in absorbance at 575 nm as a function of time was obtained and the initial velocity determined by the slope of the linear phase in the progress curve. The kinetic data was analyzed using Enzyme Kinetics Module software (SSPS, Inc., Chicago, Ill.) as previously described.
# (§1) Characterization of Engineered E. coli GalK Mutants.
# wild-type E. coli GalK = target: T2, wild-type E. coli GalK; type: biochemical
# Description: (§2) Characterization of GalK Mutants. […] The mutant enzymes were purified by using metal affinity chromatography on Ni-NTA Spin Columns (QIAGEN, Valencia, Calif.) and fractions containing homogenous protein were collected, concentrated and quantified using the Bradford protein assay. The DNS assay was used to assess the substrate specificity of the purified GalK mutants as previously described. […] For each sugar, the DNS assay was used to monitor the reaction progress and control assays in the absence of enzyme or sugar were performed in parallel. Standard curves for each sugar were prepared as described. To assess general percent conversion, each reaction contained 15.0 (M enzyme, 8 mM sugar, 14 mM ATP and 3.5 mM MgCl2. The reactions were incubated at 37° C. for 3 hrs after which the reactions were quenched with MeOH, centrifuged (10 min, 12,000 rpm) and then the supernatant (diluted 20-fold) submitted for LC-MS and MS/MS analysis. For monosaccharide kinetic data determination, the sugar concentration was varied over a range of 1-8 mM, under saturating ATP (14 mM). Reaction progress was assessed via the DNS assay, wherein a change in absorbance at 575 nm as a function of time was obtained and the initial velocity determined by the slope of the linear phase in the progress curve. The kinetic data was analyzed using Enzyme Kinetics Module software (SSPS, Inc., Chicago, Ill.) as previously described.
# as §1
# [2] = target: T4, E. coli GalK M173L mutant (Escherichia coli, UniProt P0A6T3, M173L); experiment: Substrate screen / percent conversion of 45 sugars, M173L; type: biochemical
# T4 construct: His-tag (concluded from Ni-NTA purification and vector pET15b); made in house
# T4 sequence (P0A6T3 whole entry M173L): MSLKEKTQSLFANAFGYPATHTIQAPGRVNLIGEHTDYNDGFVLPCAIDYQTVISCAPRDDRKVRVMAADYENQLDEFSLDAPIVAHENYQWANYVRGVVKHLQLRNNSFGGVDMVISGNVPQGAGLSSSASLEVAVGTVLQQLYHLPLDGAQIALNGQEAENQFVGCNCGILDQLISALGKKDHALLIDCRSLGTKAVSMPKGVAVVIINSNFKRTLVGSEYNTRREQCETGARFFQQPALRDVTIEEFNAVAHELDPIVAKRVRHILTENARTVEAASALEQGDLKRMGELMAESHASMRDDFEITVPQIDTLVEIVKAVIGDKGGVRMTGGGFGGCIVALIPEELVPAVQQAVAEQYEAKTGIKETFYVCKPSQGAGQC
# Description: as §2, §1
# [3] = target: T5, E. coli GalK Y371H mutant (Escherichia coli, UniProt P0A6T3, Y371H); type: biochemical
# T5 construct: His-tag (concluded from Ni-NTA purification and vector pET15b); made in house; host or cells: E. coli BL21-Gold (DE3), vector pET15b
# T5 sequence (P0A6T3 whole entry Y371H): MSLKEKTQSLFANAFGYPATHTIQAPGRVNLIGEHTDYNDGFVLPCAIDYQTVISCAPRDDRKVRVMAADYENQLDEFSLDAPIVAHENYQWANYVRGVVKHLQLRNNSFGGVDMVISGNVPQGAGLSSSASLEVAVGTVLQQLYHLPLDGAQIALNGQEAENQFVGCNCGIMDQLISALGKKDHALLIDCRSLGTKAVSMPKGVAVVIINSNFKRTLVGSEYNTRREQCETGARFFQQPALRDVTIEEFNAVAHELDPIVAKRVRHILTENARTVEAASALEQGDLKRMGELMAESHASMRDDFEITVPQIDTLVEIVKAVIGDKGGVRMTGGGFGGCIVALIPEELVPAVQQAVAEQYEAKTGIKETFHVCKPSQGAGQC
# Description: as §2, §1
# Y371H-M173L GalK = target: T6, Y371H-M173L GalK (Escherichia coli, UniProt P0A6T3, M173L/Y371H); experiment: In vivo conversion of fed unnatural sugars to sugar-1-phosphates in E. coli host overexpressing GalK double mutant; type: cell-based; conditions: sugar fed at 4 mM to E. coli overexpressing Y371H-M173L GalK, 16° C., 16 hr; fluorescence HPLC after labelling with 50
# T6 construct: His-tag (concluded: same plasmid pGalKMLYH in pET-15b whose product was purified on Ni-NTA); expressed in transfected cells; host or cells: E. coli host carrying pGalKMLYH (pET-15b), IPTG-induced at 16 °C
# T6 sequence (P0A6T3 whole entry M173L/Y371H): as the sequence (P0A6T3 whole entry M173L/Y371H) above
# Description: FIG. 9. In vivo GalK-catalyzed sugar-1-phosphate production. (a) Experimental overview using 6-azido-6-deoxy-D-galactose (22) as an example: 22 is fed to an E. coli host expressing the M173L-Y371H GalK double mutant and the reactants and products subsequently labeled using a […] with the fluorescent tag 50. (b) HPLC chromatographs of bioconversions: i)22 with Y371H-M173L GalK; ii)46 with Y371H-M173L GalK; iii) 22 with wild-type GalK. MS: 50, calculated for C20H25N3O3S 387.2, found m/z 386.1 [M−H]^−; 51, calculated for C26H37N6O11PS 672.2, found m/z 671.2 [M−H]^−; 52, calculated for C26H36N6O8S 592.2, found m/z 591.2 [M−H]
# In Vivo Conversion Analysis. […] The reaction mixture was subsequently centrifuged to remove CuI and the supernatant (diluted 2-fold) directly analyzed by HPLC and LC-MS calculated for C26H37N6O11PS 672.20, found m/z […] 671.20.
# To assess the Y371H-M173L GalK-catalyzed in vivo production of unnatural sugar-1-phosphates (FIG. 9a), the unnatural sugars (22 or 46, 4 mM final concentration) were fed to an E. coli host (40 mL culture) which overexpressed the promiscuous GalK. After a designated time, the extracts were analyzed via the specific attachment of a fluorescent tag (50), to both starting material (22 or 46) and desired sugar-1-phosphate products, using 1,3-dipolar cycloaddition. […]
# [4] = tested on: O=C[C@H](O)C[C@@H](O)[C@H](O)CO; experiment: purified protein, by the assay type; conditions: other: sugar 1-16 mM, saturating ATP (15 mM)
# O=C(O)C1OC(O)C(O)C(O)C1O = experiment: purified protein, by the assay type; conditions: other: sugar 1-16 mM, saturating ATP (15 mM)
# CC1OC(O)C(O)C(O)C1O = experiment: purified protein, by the assay type; conditions: other: sugar 1-16 mM, saturating ATP (15 mM)
# OCC1OC(O)CC(O)C1O = experiment: purified protein, by the assay type; conditions: other: sugar 1-16 mM, saturating ATP (15 mM)
# NCC1OC(O)C(O)C(O)C1O = experiment: purified protein, by the assay type; conditions: other: sugar 1-16 mM, saturating ATP (15 mM)
# NC1C(O)OC(CO)C(O)C1O = experiment: purified protein, by the assay type; conditions: other: sugar 1-16 mM, saturating ATP (15 mM)
# GalK mutant Y371H = GalK mutant Y371H (Escherichia coli, UniProt P0A6T3, Y371H); conditions: sugar 1-16 mM, saturating ATP (15 mM)
# Chain of GalK mutant Y371H (P0A6T3 whole entry Y371H): as the sequence (P0A6T3 whole entry Y371H) above
# [5] = substrate: O=C[C@H](O)C[C@@H](O)[C@H](O)CO; experiment: Kinetics and substrate specificity of wild-type GalK with sugar substrates (DNS assay), Table 1; type: biochemical, E. coli; conditions: other: sugar 1-16 mM, saturating ATP (15 mM)
# [6] = substrate: CC1OC(O)C(O)C(O)C1O; experiment: as above; type: biochemical, E. coli; conditions: other: sugar 1-16 mM, saturating ATP (15 mM)
# [7] = substrate: NC1C(O)OC(CO)C(O)C1O; experiment: as above; type: biochemical, E. coli; conditions: other: sugar 1-16 mM, saturating ATP (15 mM)
# [8] = substrate: OCC1OC(O)CC(O)C1O; experiment: as above; type: biochemical, E. coli; conditions: other: sugar 1-16 mM, saturating ATP (15 mM)
molecule,measurement,setting,value
"O=C[C@H](O)[C@@H](O)C[C@H](O)CO [4-deoxy-D-galactose (25), 4-deoxy-D-galactose]",conversion / activity with L. lactis wild-type GalK (in words),L. lactis wild-type GalK,in vitro conversion
"[N-]=[N+]=N[C@H]([C@H](O)[C@@H](O)C=O)[C@H](O)CO [4-azido-4-deoxy-D-galactose (21), 4-azido-4-deoxy-D-galactose]",conversion / activity with L. lactis wild-type GalK (in words),L. lactis wild-type GalK,in vitro conversion
same,kinase activity of M173L-Y371H double mutant (in words),[1],accept
same,substrate of wild-type E. coli GalK (in words),wild-type E. coli GalK,not a substrates
"[N-]=[N+]=NC[C@@H](O)[C@@H](O)[C@H](O)[C@@H](O)C=O [6-azido-6-deoxy-D-glucose (46), 6-azido-6-deoxy-D-glucose]",substrate of M173L (in words),[2],failed
same,kinase activity of M173L-Y371H double mutant (in words),[1],accept
same,in vitro yield (conversion) quoted for comparison with in vivo,[1]; in vitro,~50%
same,in vitro conversion by M173L-Y371H,"[1]; in vitro, in 2 hrs",~15%
same,substrate of Y371H (in words),[3],failed
same,substrate of wild-type E. coli GalK (in words),wild-type E. coli GalK,not a substrates
same,in vivo conversion to sugar-1-phosphate,Y371H-M173L GalK,~15%
GalK mutant Y371H (Escherichia coli K-12; Y371H),Km,[4],10.1 mM
same,kcat,[4],1.08 s⁻¹
same,kcat/Km,[4],107 M⁻¹ s⁻¹
same,Km,O=C(O)C1OC(O)C(O)C(O)C1O,3.2 mM
same,kcat,O=C(O)C1OC(O)C(O)C(O)C1O,0.967 s⁻¹
same,kcat/Km,O=C(O)C1OC(O)C(O)C(O)C1O,302 M⁻¹ s⁻¹
same,Km,CC1OC(O)C(O)C(O)C1O,8.0 mM
same,kcat,CC1OC(O)C(O)C(O)C1O,1.68 s⁻¹
same,kcat/Km,CC1OC(O)C(O)C(O)C1O,210 M⁻¹ s⁻¹
same,Km,OCC1OC(O)CC(O)C1O,4.7 mM
same,kcat,OCC1OC(O)CC(O)C1O,3.33 s⁻¹
same,kcat/Km,OCC1OC(O)CC(O)C1O,710 M⁻¹ s⁻¹
same,Km,NCC1OC(O)C(O)C(O)C1O,21.3 mM
same,kcat,NCC1OC(O)C(O)C(O)C1O,2.48 s⁻¹
same,kcat/Km,NCC1OC(O)C(O)C(O)C1O,117 M⁻¹ s⁻¹
same,Km,NC1C(O)OC(CO)C(O)C1O,8.8 mM
same,kcat,NC1C(O)OC(CO)C(O)C1O,4.33 s⁻¹
same,kcat/Km,NC1C(O)OC(CO)C(O)C1O,492 M⁻¹ s⁻¹
"O=C[C@@H](O)[C@H](O)[C@@H](O)[C@@H](O)CO [L-Glc (25), L-glucose]",Km,"GalK mutant Y371H; read-out: Km, Y371H",2.7 mM
same,"kcat, Y371H",GalK mutant Y371H,1.08 s⁻¹
B1,Km,[5],6.4 mM
same,kcat,[5],0.085 s⁻¹
same,kcat/Km,[5],13 M⁻¹ s⁻¹
same,Km,[6],4.9 mM
same,kcat,[6],0.0483 s⁻¹
same,kcat/Km,[6],9.83 M⁻¹ s⁻¹
same,Km,[7],2.9 mM
same,kcat,[7],0.195 s⁻¹
same,kcat/Km,[7],66.7 M⁻¹ s⁻¹
same,Km,[8],3.6 mM
same,kcat,[8],0.5 s⁻¹
same,kcat/Km,[8],138 M⁻¹ s⁻¹
